Assay results published in PMC5028900.

Experiments:
GST-MeCP2 AT-hook 2 = GST-MeCP2 AT-hook 2 (UniProt P51608); experiment: competition EMSA; settings: 0.8 ug poly(dA-dT) against N1 probe; EMSA: 10 mM Tris-HCl pH 7.5, 50 mM KCl, 0.5 mM MgCl2, 0.1 mM EDTA, 0.1 mg/mL BSA, 5% glycerol; 0.5 ng probe in 20 uL; 30 min on ice; native 6% acrylamide gel
GST-MeCP2 AT-hook 1 = GST-MeCP2 AT-hook 1 (UniProt P51608); experiment: competition EMSA; settings: 0.8 ug poly(dA-dT) against N1 probe; EMSA: 10 mM Tris-HCl pH 7.5, 50 mM KCl, 0.5 mM MgCl2, 0.1 mM EDTA, 0.1 mg/mL BSA, 5% glycerol; 0.5 ng probe in 20 uL; 30 min on ice; native 6% acrylamide gel

UniProt P51608, sequence (P51608 whole entry): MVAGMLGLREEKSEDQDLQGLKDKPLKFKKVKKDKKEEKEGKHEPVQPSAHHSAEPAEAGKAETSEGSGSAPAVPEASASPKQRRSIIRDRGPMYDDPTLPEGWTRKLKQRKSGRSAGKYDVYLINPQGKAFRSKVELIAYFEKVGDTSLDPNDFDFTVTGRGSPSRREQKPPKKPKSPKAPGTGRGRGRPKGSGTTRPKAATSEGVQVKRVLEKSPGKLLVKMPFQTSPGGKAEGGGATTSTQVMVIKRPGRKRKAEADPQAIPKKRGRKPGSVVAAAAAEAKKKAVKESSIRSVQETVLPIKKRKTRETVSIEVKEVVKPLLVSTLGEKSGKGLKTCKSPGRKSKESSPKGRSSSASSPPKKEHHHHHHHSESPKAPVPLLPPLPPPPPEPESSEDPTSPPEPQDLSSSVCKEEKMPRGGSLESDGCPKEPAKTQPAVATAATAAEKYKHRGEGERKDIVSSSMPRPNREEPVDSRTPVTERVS

Substance: poly(dA-dT)
- binding signal (% of bound probe displaced) (GST-MeCP2 AT-hook 2): 20
- binding signal (% of bound probe displaced) (GST-MeCP2 AT-hook 1): 67
